Reference: article PMC7755911

Molecular target: Biotinylated SARS-CoV-2 S protein RBD with a C-terminal AviTag (SARS-CoV-2) (UniProt P0DTC2)
Assay: BLI

Sequence of NIH-CoVnb-112 (VHH) (VHH): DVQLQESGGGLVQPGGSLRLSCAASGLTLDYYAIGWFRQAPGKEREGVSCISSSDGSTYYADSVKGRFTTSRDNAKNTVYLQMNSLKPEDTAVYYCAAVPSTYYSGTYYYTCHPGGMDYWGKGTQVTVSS

## NIH-CoVnb-112 (VHH)
  Kd: 4.9 nM
  koff: 0.000654 s⁻¹
  kon: 130000 M⁻¹ s⁻¹
